Test results: patent publication US20210253720A1 (KEROS THERAPEUTICS, published 2021)

T1: ALK2-FC (UniProt Q04771 21-123, limits assumed)
T1 construct: Only the embodiments speak of 'human ALK2'; not shown: Fc part
T1 sequence (looked up): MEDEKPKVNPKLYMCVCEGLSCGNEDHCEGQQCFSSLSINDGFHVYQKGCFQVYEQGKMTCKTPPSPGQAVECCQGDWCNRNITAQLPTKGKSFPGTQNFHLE

B1: Antibody 1, monovalent fAB in fAB-FH format (Fab, V domains shown)
VH: QVQLVQSGAEVKKPGSSVKVSCKASGGTFSSYGVSWVRQAPGQGLEWMGGIIPHFGIANYAQKFQGRVTITADESTSTAYMELSSLRSEDTAVYYCAREIGSLDIWGQGTLVTVSS
VL: DIVLTQPPSVSGAPGQRVTISCSGSSSNIGSNYVSWYQQLPGTAPKVLIYKNNHRPSGVPDRFSGSKSGTSASLAITGLQAEDEADYYCASWDHSDRFYVFGGGTKLTVLG
notes: also called Anti-ALK2 fAB
B2: Antibody 8, monovalent fAB in fAB-FH format (Fab, V domains shown)
VH: EVQLLESGGGLVQPGGSLRLSCAASGFTFSDYAMHWVRQAPGKGLEWVSSIFYSGSNTYYADSVKGRFTISRDNSKNTLYLQMNSLRAEDTAVYYCARPKSYASGPFAYWGQGTLVTVSS
VL: DIELTQPPSVSVSPGQTASITCSGDALRYYIAHWYQQKPGQAPVLVIYYNNNRPSGIPERFSGSNSGNTATLTISGTQAEDEADYYCQSYGPGSVVFGGGTKLTVLG
notes: also called Anti-ALK2 fAB
B3: Antibody 6, monovalent fAB in fAB-FH format (Fab, V domains shown)
VH: EVQLLESGGGLVQPGGSLRLSCAASGFTFGRFVMHWVRQAPGKGLEWVSVIGYSGSSTYYADSVKGRFTISRDNSKNTLYLQMNSLRAEDTAVYYCAREPGYYYPSGYYRGPGYWMDVWGQGTLVTVSS
VL: DIQMTQSPSSLSASVGDRVTITCRASQGISGNWLTWYQQKPGKAPKLLIYDASNLQSGVPSRFSGSGSGTDFTLTISSLQPEDFATYYCHQSYRGPMTFGQGTKVEIKR
notes: also called Anti-ALK2 fAB
B4: Antibody 4, monovalent fAB in fAB-FH format (Fab, V domains shown)
VH: QVQLVQSGAEVKKPGSSVKVSCKASGGTFSSYAIHWVRQAPGQGLEWMGRIIPDFGTANYAQKFQGRVTITADESTSTAYMELSSLRSEDTAVYYCARGPTQAIHYFAYWGQGTLVTVSS
VL: DIELTQPPSVSVSPGQTASITCSGDNLRKYSAHWYQQKPGQAPVLVIYYDNKRPSGIPERFSGSNSGNTATLTISGTQAEDEADYYCQVYASVHRMVFGGGTKLTVLG
notes: also called Anti-ALK2 fAB
B5: Antibody 3, monovalent fAB in fAB-FH format (Fab, V domains shown)
VH: EVQLVESGGGLVKPGGSLRLSCAASGFTFNSSAMSWVRQAPGKGLEWVGRIKSKRDGYTTDYAAPVKGRFTISRDDSKNTLYLQMNSLKTEDTAVYYCARDYGGLKFDYWGQGTLVTVSS
VL: DIELTQPPSVSVSPGQTASITCSGDNIGTKYAYWYQQKPGQAPVLVIYGDSDRPSGIPERFSGSNSGNTATLTISGTQAEDEADYYCYSADAQQMKAVFGGGTKLTVLG
notes: also called Anti-ALK2 fAB
B6: Antibody 9, monovalent fAB in fAB-FH format (Fab, V domains shown)
VH: QVQLVQSGAEVKKPGSSVKVSCKASGGTFSTHAISWVRQAPGQGLEWMGLIQPRFGTANYAQKFQGRVTITADESTSTAYMELSSLRSEDTAVYYCARDYYGGMAYWGQGTLVTVSS
VL: DIVLTQPPSVSGAPGQRVTISCSGSSSNIGQNYVSWYQQLPGTAPKLLIYDNSKRPSGVPDRFSGSKSGTSASLAITGLQAEDEADYYCSSWDLLSKSRVFGGGTKLTVLG
notes: also called Anti-ALK2 fAB
B7: Antibody 2, monovalent fAB in fAB-FH format (Fab, V domains shown)
VH: EVQLVESGGGLVKPGGSLRLSCAASGFTFSSHAMSWVRQAPGKGLEWVGRIKSKADSGTTDYAAPVKGRFTISRDDSKNTLYLQMNSLKTEDTAVYYCARDYGVAFAYWGQGTLVTVSS
VL: DIELTQPPSVSVSPGQTASITCSGDSIPSFFASWYQQKPGQAPVLVIYRDSNRPSGIPERFSGSNSGNTATLTISGTQAEDEADYYCYVTAPWKSIWVFGGGTKLTVLG
notes: also called Anti-ALK2 fAB
B8: Antibody 5, monovalent fAB in fAB-FH format (Fab, V domains shown)
VH: EVQLLESGGGLVQPGGSLRLSCAASGFTFSSAAMHWVRQAPGKGLEWVSVISSDGGSTYYADSVKGRFTISRDNSKNTLYLQMNSLRAEDTAVYYCARAGFILGSLGVAWMDVWGQGTLVTVSS
VL: DIELTQPPSVSVSPGQTASITCSGDSLGSKSVHWYQQKPGQAPVLVIYRDSKRPSGIPERFSGSNSGNTATLTISGTQAEDEADYYCQTYDWSHFGWVFGGGTKLTVLG

Key:
[1] = biological target: ALK2 on C2C12-BRE-Luciferase cells
ALK2 on C2C12-BRE-Luciferase cells, sequence (P37172 whole entry): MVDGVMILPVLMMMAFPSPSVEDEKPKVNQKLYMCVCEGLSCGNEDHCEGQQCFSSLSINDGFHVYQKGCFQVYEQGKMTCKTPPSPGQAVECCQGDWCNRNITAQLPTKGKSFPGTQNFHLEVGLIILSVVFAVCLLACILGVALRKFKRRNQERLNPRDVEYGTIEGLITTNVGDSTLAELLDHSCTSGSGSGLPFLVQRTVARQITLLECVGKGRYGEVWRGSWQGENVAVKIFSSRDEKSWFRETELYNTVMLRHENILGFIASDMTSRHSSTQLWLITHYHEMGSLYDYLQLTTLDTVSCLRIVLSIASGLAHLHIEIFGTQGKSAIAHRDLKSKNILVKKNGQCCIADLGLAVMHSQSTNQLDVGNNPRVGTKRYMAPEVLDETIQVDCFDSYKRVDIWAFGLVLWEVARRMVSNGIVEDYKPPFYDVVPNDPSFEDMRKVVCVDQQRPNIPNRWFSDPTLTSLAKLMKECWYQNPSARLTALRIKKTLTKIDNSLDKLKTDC

ALK2-FC [2] = biological target: T1, ALK2-FC; experiment: BLI, ForteBio Octet RED384; monovalent fAB-FH against ALK2-FC
ALK2-FC [3] = biological target: T1, ALK2-FC; experiment: BLI, ForteBio Octet; fAB against ALK2-FC; fAB, ForteBio Octet against ALK2-FC
[4] = biological target: ALK2 on C2C12-BRE-Luciferase cells; remark: listed apart in the source
ALK2-FC [5] = biological target: T1, ALK2-FC; experiment: BLI, ForteBio Octet; fAB against ALK2-FC

Binder	IC50 (3 Param fit), inhibition of BMP6 (40 ng/mL)-induced SMAD1 (BRE) luciferase signal in C2C12 cells, ng/mL is the unit of the x axis [1]	IC50 (4 Param fit), inhibition of BMP6 (40 ng/mL)-induced SMAD1 (BRE) luciferase signal in C2C12 cells, ng/mL is the unit of the x axis [1]	Kd (ALK2-FC [2])	koff (ALK2-FC [2])	Kd (ALK2-FC [3])	IC50, inhibition of BMP6 (40 ng/mL)-induced SMAD1 (BRE) luciferase signal in C2C12 cells; fit type not given [4]	Kd (ALK2-FC [5])
B1	1750 ng/mL	1830 ng/mL	4 nM	0.00172 s⁻¹	4 nM		
B2			6.3 nM	0.00576 s⁻¹		0.367 µg/mL	
B3			2.9 nM	0.00349 s⁻¹		1.16 µg/mL	
B4	465 ng/mL	462 ng/mL	1.8 nM	0.000759 s⁻¹			
B5	1460 ng/mL	1490 ng/mL	4.4 nM	0.00149 s⁻¹			4.4 nM
B6			14 nM	0.0149 s⁻¹		1.27 µg/mL	
B7	145 ng/mL	221 ng/mL	0.7 nM	0.000357 s⁻¹			0.7 nM
B8	710 ng/mL	754 ng/mL					
